We go through 1 substance from US7381413.

This assay addresses Fas (CD95) on L1210 and L1210/DDP cells (UniProt P25446). In words: cell-based or functional assay.
Sequence of UniProt P25446 (P25446 22-327 limits assumed): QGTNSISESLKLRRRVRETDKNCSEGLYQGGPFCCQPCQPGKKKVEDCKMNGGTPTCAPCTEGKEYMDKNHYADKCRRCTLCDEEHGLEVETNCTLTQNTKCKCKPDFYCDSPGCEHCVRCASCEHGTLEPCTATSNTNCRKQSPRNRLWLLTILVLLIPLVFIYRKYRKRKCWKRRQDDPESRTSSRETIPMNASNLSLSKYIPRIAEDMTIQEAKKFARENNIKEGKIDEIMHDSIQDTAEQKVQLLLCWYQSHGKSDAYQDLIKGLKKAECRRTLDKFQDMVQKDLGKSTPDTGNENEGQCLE

Substance anti-Fas antibody Jo2.2 (Pharmingen) registered a % dead cells over background of untreated cells, L1210/0 on anti-Fas coated plates of 80% and a % dead cells over background of untreated cells, L1210/DDP on anti-Fas coated plates of 46.6%.
